Data: patent publication US20260242478A1 (published 2026)
Where no end group is shown, it is not given here.

B1: Phage-3460 (peptide)
peptide: NAIMCRPAWMCSGF
notes: also called Peptide-180 library clone; not shown: pIII filament protein of the bacteriophage
B2: Phage-3450 (peptide)
peptide: PLKLCIPEWMCVEL
notes: as for B1
B3: Phage-3423 (peptide)
peptide: YFQMCAPRWMCEGF
modifications: cysteine pairing not given here; also: fused to pIII of bacteriophage
notes: Peptide-180 library clone, tested as clonal phage supernatant; not shown: fused to the pIII filament protein of the bacteriophage
B4: Phage-3478 (peptide)
peptide: SDKFCVPEWMCEWI
notes: tested as crude clonal phage supernatant
B5: Phage-3425 (peptide)
peptide: LEIMCRPEWMCSGF
notes: as for B3
B6: Phage-3457 (peptide)
peptide: VEKMCRPLWMCHGF
notes: as for B1
B7: Phage-3458 (peptide)
peptide: VVAQCVPRWMCDGF
notes: as for B1
B8: Phage-3430 (peptide)
peptide: VEKMCKPVWMCNGF
notes: as for B3
B9: Phage-3451 (peptide)
peptide: TINICKPQWMCIGF
notes: as for B1
B10: Phage-3427 (peptide)
peptide: SSMLCIPTWMCGGF
notes: as for B3
B11: Phage-3477 (peptide)
peptide: VWKTCVPEWMCVGY
notes: as for B4
B12: Phage-3480 (peptide)
peptide: EFIKCEPKWMCQGF
notes: as for B4
B13: Phage-3449 (peptide)
peptide: EDVRCVPAWMCNGF
modifications: cysteine pairing not given here; also: fused to pIII of bacteriophage
notes: as for B1
B14: Phage-3420 (peptide)
peptide: NDVKCIPEWMCVGF
notes: as for B3
B15: Phage-3476 (peptide)
peptide: VSPMCRPAWMCEGL
notes: as for B4
B16: Phage-3461 (peptide)
peptide: TELLCTPRWMCEGF
notes: as for B1
B17: Phage-3452 (peptide)
peptide: MERFCIPSWMCEGL
notes: as for B1
B18: Phage-3429 (peptide)
peptide: SLPICKPEWMCVGL
notes: as for B3
B19: Phage-3426 (peptide)
peptide: MTPRCIPSWMCFGM
notes: as for B3
B20: Phage-3432 (peptide)
peptide: SFLRCEPMWMCLGF
notes: as for B3
B21: Phage-3424 (peptide)
peptide: IDQICKPAWMCSGF
notes: as for B3
B22: Phage-3431 (peptide)
peptide: EDILCKPVWMCIGF
notes: as for B3
B23: Phage-3479 (peptide)
peptide: MDARCVPSWMCIGV
notes: as for B4
B24: Phage-3456 (peptide)
peptide: HIMQCKPAWMCSGL
notes: as for B1
B25: Phage-3455 (peptide)
peptide: IEALCVPDWMCRGF
notes: as for B1
B26: Phage-3428 (peptide)
peptide: TSLRCVPEWMCSGF
notes: as for B3
B27: Phage-3433 (peptide)
peptide: IEPHCVPAWMCTGF
notes: as for B3
B28: Phage-3422 (peptide)
peptide: LSTLCIPQWMCTGL
notes: as for B3
B29: Phage-3462 (peptide)
peptide: VLRSCVPEWMCSGF
notes: as for B1
B30: Phage-3453 (peptide)
peptide: FEFRCTPEWMCRGF
notes: as for B1
B31: Phage-3421 (peptide)
peptide: TDPLCIPEWMCQGM
notes: as for B3
B32: Phage-3454 (peptide)
peptide: VTMRCTPDWMCVGF
notes: as for B1
B33: Phage-3459 (peptide)
peptide: SPPLCVPVWMCHGF
notes: as for B1

Columns and labels:
[1] = biological target: T1, PSMA Fab (006 PSMA Fab) (Fab biotinylated for capture on neutravidin plates (site not given)); assay: clonal phage ELISA; biotinylated PSMA Fab on neutravidin plate, blocking buffer alone; anti-M13-HRP detection;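 further: clonal phage applied as crude supernatants to wells preincubated with blocking buffer, binding read by ELISA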
T1 construct: also called Anti-PSMA Fab; anti-PSMA Fab

[2] = biological target: T1, PSMA Fab (006 PSMA Fab); assay: clonal phage ELISA; biotinylated PSMA Fab on neutravidin plate, wells pre-incubated with PSMA antigen as competitor; anti-M13-HRP detection
Description: (§1) Clonal phage were harvested as crude supernatants and screened via standard ELISAs. […] Prior to the addition of clonal phage. wells were incubated with blocking buffer and PSMA antigen or blocking buffer alone. Without washing or aspirating, clonal phage supernatants were then added to the wells and incubated for a short time. Wells were then washed followed by detection of bound phage using a horse radish conjugated anti-M13 antibody.

[3] = biological target: T2, PSMA Fab (006 PSMA Fab) (biotinylated (site not stated)); assay: clonal phage ELISA on captured anti-PSMA Fab pre-incubated with PSMA antigen (competitor: PSMA)
T2 construct: That the same Fab was used in the panning ELISA is inferred; also called Anti-PSMA Fab; anti-PSMA Fab

[4] = biological target: T2, PSMA Fab (006 PSMA Fab); assay: clonal phage ELISA on biotinylated anti-PSMA Fab captured on neutravidin, anti-M13-HRP detection
Description: as §1

[5] = biological target: T3, PSMA Fab (biotinylated (site not stated)); assay: clonal phage ELISA on PSMA Fab pre-incubated with PSMA antigen as competitor
T3 construct: Biotinylated PSMA Fab captured on neutravidin coated plates in the phage ELISA; also called Anti-PSMA Fab; 006 PSMA Fab

[6] = biological target: T3, PSMA Fab; assay: clonal phage ELISA, biotinylated PSMA Fab on neutravidin plate, anti-M13 HRP detection;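 further: crude clonal phage supernatants added to wells pretreated with blocking buffer either with or without PSMA antigen, bound phage read after washing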
Description: as §1

[7] = biological target: T4, PSMA Fab; assay: clonal phage ELISA; biotinylated PSMA Fab on neutravidin plate, pre-incubated with PSMA antigen as competitor; anti-M13 HRP detection
T4 construct: also called Anti-PSMA Fab; 006 PSMA Fab
Description: as §1

[8] = biological target: T4, PSMA Fab; assay: clonal phage ELISA; biotinylated PSMA Fab on neutravidin plate, blocking buffer alone; anti-M13 HRP detection;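 further: crude clonal phage supernatants added without washing to wells pretreated with blocking buffer with or without PSMA antigen, short incubation, then washed before detecting bound phage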
Description: as §1

| Binder | Phage binding ELISA signal, Anti-PSMA Fab [1] | Phage binding ELISA signal, Anti-PSMA Fab in presence of PSMA antigen [2] | phage binding ELISA signal in the presence of PSMA [3] | phage binding ELISA signal [4] | also measured |
| --- | --- | --- | --- | --- | --- |
| B1 | 1.74 | 0.0847 | – | – | – |
| B2 | 1.75 | 0.0747 | – | – | – |
| B3 | – | – | 0.0849 | 1.78 | – |
| B4 | – | – | – | – | Phage binding ELISA signal, Anti-PSMA Fab with PSMA antigen [5]: 0.0588; Phage binding ELISA signal, Anti-PSMA Fab [6]: 1.72 |
| B5 | – | – | 0.0888 | 1.77 | – |
| DFVRCVPDWMCQGF [Phage-3414] | – | – | – | – | Phage binding ELISA signal, Anti-PSMA Fab with PSMA antigen [7]: 0.0627; Phage binding ELISA signal, Anti-PSMA Fab [8]: 1.79 |
| B6 | 1.74 | 0.0944 | – | – | – |
| B7 | 1.74 | 0.103 | – | – | – |
| B8 | – | – | 0.115 | 1.77 | – |
| B9 | 1.74 | 0.0893 | – | – | – |
| B10 | – | – | 0.0536 | 1.77 | – |
| B11 | – | – | – | – | Phage binding ELISA signal, Anti-PSMA Fab with PSMA antigen [5]: 0.112; Phage binding ELISA signal, Anti-PSMA Fab [6]: 1.73 |
| B12 | – | – | – | – | Phage binding ELISA signal, Anti-PSMA Fab with PSMA antigen [5]: 0.0826; Phage binding ELISA signal, Anti-PSMA Fab [6]: 1.72 |
| B13 | 1.75 | 0.0724 | – | – | – |
| B14 | – | – | 0.0849 | 1.78 | – |
| B15 | – | – | – | – | Phage binding ELISA signal, Anti-PSMA Fab with PSMA antigen [5]: 0.0909; Phage binding ELISA signal, Anti-PSMA Fab [6]: 1.73 |
| IMPTCVPQWMCNGF [Phage-3418] | – | – | – | – | Phage binding ELISA signal, Anti-PSMA Fab with PSMA antigen [7]: 0.093; Phage binding ELISA signal, Anti-PSMA Fab [8]: 1.78 |
| B16 | 1.74 | 0.163 | – | – | – |
| B17 | 1.74 | 0.0682 | – | – | – |
| B18 | – | – | 0.0892 | 1.77 | – |

| Binder | Phage binding ELISA signal, Anti-PSMA Fab [1] | Phage binding ELISA signal, Anti-PSMA Fab in presence of PSMA antigen [2] | phage binding ELISA signal in the presence of PSMA [3] | phage binding ELISA signal [4] | also measured |
| --- | --- | --- | --- | --- | --- |
| B19 | – | – | 0.086 | 1.77 | – |
| B20 | – | – | 0.0816 | 1.77 | – |
| MLPYCVPQWMCMGF [Phage-3419] | – | – | – | – | Phage binding ELISA signal, Anti-PSMA Fab with PSMA antigen [7]: 0.147; Phage binding ELISA signal, Anti-PSMA Fab [8]: 1.78 |
| B21 | – | – | 0.0628 | 1.78 | – |
| B22 | – | – | 0.06 | 1.77 | – |
| B23 | – | – | – | – | Phage binding ELISA signal, Anti-PSMA Fab with PSMA antigen [5]: 0.48; Phage binding ELISA signal, Anti-PSMA Fab [6]: 1.72 |
| B24 | 1.74 | 0.0654 | – | – | – |
| B25 | 1.74 | 0.0663 | – | – | – |
| B26 | – | – | 0.0814 | 1.77 | – |
| METWCVPTWMCTGF [Phage-3415] | – | – | – | – | Phage binding ELISA signal, Anti-PSMA Fab with PSMA antigen [7]: 0.0748; Phage binding ELISA signal, Anti-PSMA Fab [8]: 1.79 |
| B27 | – | – | 0.0805 | 1.76 | – |
| B28 | – | – | 0.0813 | 1.78 | – |
| B29 | 1.74 | 0.075 | – | – | – |
| B30 | 1.74 | 0.0706 | – | – | – |
| B31 | – | – | 0.0726 | 1.78 | – |
| DTWICKPEWMCMGF [Phage-3416] | – | – | – | – | Phage binding ELISA signal, Anti-PSMA Fab with PSMA antigen [7]: 0.0802; Phage binding ELISA signal, Anti-PSMA Fab [8]: 1.78 |
| VERACRPVWMCQGF [Phage-3417] | – | – | – | – | Phage binding ELISA signal, Anti-PSMA Fab with PSMA antigen [7]: 0.0907; Phage binding ELISA signal, Anti-PSMA Fab [8]: 1.78 |
| B32 | 1.74 | 0.0737 | – | – | – |
| B33 | 1.74 | 0.148 | – | – | – |
